This passage reports IC50 results from the Immune Epitope Database (IEDB).

Common to all, as to assay: IEDB peptide-MHC binding, purified MHC/competitive/radioactivity; ≥ and ≤ were set here for values at or beyond the usual limits of such assays
In experiment [1] the target is HLA-A*68:02.
The target in experiment [2] is HLA-A*02:03.
The target in experiment [3] is HLA-A*02:02.
Experiment [4] addresses HLA-A*02:01.
Experiment [5] addresses HLA-A*02:06.
Where [6] appears, read: source organism: Vaccinia virus WR.

For the sequence IMSMMNITRL, the IC50 (in general, the concentration that gives 50% inhibition) in experiment [1] (setting [6]) is 119 nM; in experiment [2] (setting [6]), 106 nM; in experiment [3] (setting [6]) it was 62 nM; in experiment [4] (setting [6]), 284 nM; in experiment [5] (setting [6]), 585 nM.

Turning to IMTSTRTIIL, the half-maximal inhibitory concentration (IC50) in experiment [1] (setting [6]) came out at 91 nM; in experiment [2] (setting [6]), 52 nM; in experiment [3] (setting [6]), 1020 nM; in experiment [4] (setting [6]), 540 nM; in experiment [5] (setting [6]) it was 438 nM.

IQYRQQLEL: the IC50 in experiment [1] (setting [6]) is 3570 nM; in experiment [2] (setting [6]), 45 nM; in experiment [3] (setting [6]) it was 511 nM; in experiment [4] (setting [6]) it was 258 nM; in experiment [5] (setting [6]), 41 nM.

As to ITAIYVFCI, the IC50 worked out at 272 nM in experiment [1] (source organism: SARS-CoV1); 89 nM in experiment [2] (source organism: SARS-CoV1); 29 nM in experiment [3] (source organism: SARS-CoV1); 127 nM in experiment [4] (source organism: SARS-CoV1); 132 nM in experiment [5] (source organism: SARS-CoV1).

As to ITDNGPMPYM, the IC50 stood at 473 nM in experiment [1] (setting [6]); 1180 nM in experiment [2] (setting [6]); 828 nM in experiment [3] (setting [6]); 473 nM in experiment [4] (setting [6]); 303 nM in experiment [5] (setting [6]).

Consider ITMTTVYHI, for which the IC50 in experiment [1] (source organism: SARS-CoV1) was found to be 6.1 nM; in experiment [2] (source organism: SARS-CoV1), 7.2 nM; in experiment [3] (source organism: SARS-CoV1), 19 nM; in experiment [4] (source organism: SARS-CoV1), 8.2 nM; in experiment [5] (source organism: SARS-CoV1), 2.3 nM.

As to ITTLLNETA, the IC50 in experiment [1] (setting [6]) was found to be 70 nM; in experiment [2] (setting [6]), 936 nM; in experiment [3] (setting [6]) it was 414 nM; in experiment [4] (setting [6]) it was 635 nM; in experiment [5] (setting [6]) it was 596 nM.

For the sequence ITYCLVTHM, the IC50 in experiment [1] (setting [6]) amounted to 1730 nM; in experiment [2] (setting [6]) it was 2330 nM; in experiment [3] (setting [6]), 1280 nM; in experiment [4] (setting [6]) it was 3100 nM; in experiment [5] (setting [6]), 1410 nM.

On to IVAALVFLI, for which the IC50 in experiment [1] (source organism: SARS-CoV1) was 0.58 nM; in experiment [2] (source organism: SARS-CoV1) it was 15 nM; in experiment [3] (source organism: SARS-CoV1) it was 0.14 nM; in experiment [4] (source organism: SARS-CoV1), 2.1 nM; in experiment [5] (source organism: SARS-CoV1), 1.8 nM.

For the sequence IVAAVIIMAI, the IC50 came out at 95 nM in experiment [1] (setting [6]); 2610 nM in experiment [2] (setting [6]); 727 nM in experiment [3] (setting [6]); 4430 nM in experiment [4] (setting [6]); 4510 nM in experiment [5] (setting [6]).

Consider IVAMLLTHGA, for which the IC50 turned out to be 505 nM in experiment [1] (setting [6]); 153 nM in experiment [2] (setting [6]); 1160 nM in experiment [3] (setting [6]); 4910 nM in experiment [4] (setting [6]); 82 nM in experiment [5] (setting [6]).

For the sequence IVCIVAAVII, the IC50 in experiment [1] (setting [6]) was determined as 2980 nM; in experiment [2] (setting [6]), 1590 nM; in experiment [3] (setting [6]), 1460 nM; in experiment [4] (setting [6]) it was 1960 nM; in experiment [5] (setting [6]), 3550 nM.

As to IVDSMIIGHI, the IC50 in experiment [1] (setting [6]) worked out at 53 nM; in experiment [2] (setting [6]), 208 nM; in experiment [3] (setting [6]) it was 507 nM; in experiment [4] (setting [6]) it was 1060 nM; in experiment [5] (setting [6]), 561 nM.

IVDTVSALV: the IC50 in experiment [1] (source organism: SARS-CoV1) amounted to 301 nM; in experiment [2] (source organism: SARS-CoV1), 528 nM; in experiment [3] (source organism: SARS-CoV1), 17 nM; in experiment [4] (source organism: SARS-CoV1) it was 58 nM; in experiment [5] (source organism: SARS-CoV1), 43 nM.

On to IVILFIMFM, for which the IC50 in experiment [1] (setting [6]) turned out to be 667 nM; in experiment [2] (setting [6]) it was 1680 nM; in experiment [3] (setting [6]), 1860 nM; in experiment [4] (setting [6]), 576 nM; in experiment [5] (setting [6]) it was 741 nM.

As to IVNCLSLSNL, the IC50 stood at 3590 nM in experiment [1] (setting [6]); 128 nM in experiment [2] (setting [6]); 338 nM in experiment [3] (setting [6]); 1930 nM in experiment [4] (setting [6]); 1280 nM in experiment [5] (setting [6]).

Consider IVNSVLLFL, for which the IC50 in experiment [1] (source organism: SARS-CoV1) turned out to be 2090 nM; in experiment [2] (source organism: SARS-CoV1), 179 nM; in experiment [3] (source organism: SARS-CoV1), 7.1 nM; in experiment [4] (source organism: SARS-CoV1), 68 nM; in experiment [5] (source organism: SARS-CoV1), 30 nM.

As to IVNTTYDFL, the IC50 in experiment [1] (setting [6]) turned out to be 750 nM; in experiment [2] (setting [6]), 4680 nM; in experiment [3] (setting [6]), 1880 nM; in experiment [4] (setting [6]) it was 1050 nM; in experiment [5] (setting [6]) it was 2990 nM.

As to IVPEFAKQYV, the IC50 is 3.5 nM in experiment [1] (setting [6]); 18 nM in experiment [2] (setting [6]); 10 nM in experiment [3] (setting [6]); 5 nM in experiment [4] (setting [6]); 15 nM in experiment [5] (setting [6]).

Regarding IVSKCIVQSV, the IC50 in experiment [1] (setting [6]) turned out to be 50 nM; in experiment [2] (setting [6]) it was 31 nM; in experiment [3] (setting [6]), 123 nM; in experiment [4] (setting [6]), 612 nM; in experiment [5] (setting [6]) it was 552 nM.

Consider IVTFINDYA, for which the IC50 in experiment [1] (setting [6]) amounted to 84 nM; in experiment [2] (setting [6]) it was 2960 nM; in experiment [3] (setting [6]), 140 nM; in experiment [4] (setting [6]), 4320 nM; in experiment [5] (setting [6]), 1150 nM.

On to IVVALSSLV, for which the IC50 in experiment [1] (setting [6]) came out at 5.4 nM; in experiment [2] (setting [6]), 3.9 nM; in experiment [3] (setting [6]) it was 27 nM; in experiment [4] (setting [6]), 108 nM; in experiment [5] (setting [6]), 8.2 nM.

On to IVVPVIDRL, for which the IC50 turned out to be 35 nM in experiment [1] (setting [6]); 226 nM in experiment [2] (setting [6]); 144 nM in experiment [3] (setting [6]); 241 nM in experiment [4] (setting [6]); 31 nM in experiment [5] (setting [6]).
